In ChEMBL document CHEMBL5649167, “The SUV4-20 inhibitor A-196 verifies a role for epigenetics in genomic integrity” (Nat Chem Biol, 2017):

What was measured:
[1] = tested on: Clc1cc2c(NC3CCCC3)nnc(-c3ccncc3)c2cc1Cl; settings: Homo sapiens; time 2.0 hrs
[2] = tested on: Clc1cc2c(NC3CCCC3)nnc(-c3ccncc3)c2cc1Cl; settings: Homo sapiens; time 2.0 hrs; remark: listed apart in the source

Sequence of Histone-lysine N-methyltransferase KMT5B (Homo sapiens), Q4FZB7 (Q4FZB7 whole entry): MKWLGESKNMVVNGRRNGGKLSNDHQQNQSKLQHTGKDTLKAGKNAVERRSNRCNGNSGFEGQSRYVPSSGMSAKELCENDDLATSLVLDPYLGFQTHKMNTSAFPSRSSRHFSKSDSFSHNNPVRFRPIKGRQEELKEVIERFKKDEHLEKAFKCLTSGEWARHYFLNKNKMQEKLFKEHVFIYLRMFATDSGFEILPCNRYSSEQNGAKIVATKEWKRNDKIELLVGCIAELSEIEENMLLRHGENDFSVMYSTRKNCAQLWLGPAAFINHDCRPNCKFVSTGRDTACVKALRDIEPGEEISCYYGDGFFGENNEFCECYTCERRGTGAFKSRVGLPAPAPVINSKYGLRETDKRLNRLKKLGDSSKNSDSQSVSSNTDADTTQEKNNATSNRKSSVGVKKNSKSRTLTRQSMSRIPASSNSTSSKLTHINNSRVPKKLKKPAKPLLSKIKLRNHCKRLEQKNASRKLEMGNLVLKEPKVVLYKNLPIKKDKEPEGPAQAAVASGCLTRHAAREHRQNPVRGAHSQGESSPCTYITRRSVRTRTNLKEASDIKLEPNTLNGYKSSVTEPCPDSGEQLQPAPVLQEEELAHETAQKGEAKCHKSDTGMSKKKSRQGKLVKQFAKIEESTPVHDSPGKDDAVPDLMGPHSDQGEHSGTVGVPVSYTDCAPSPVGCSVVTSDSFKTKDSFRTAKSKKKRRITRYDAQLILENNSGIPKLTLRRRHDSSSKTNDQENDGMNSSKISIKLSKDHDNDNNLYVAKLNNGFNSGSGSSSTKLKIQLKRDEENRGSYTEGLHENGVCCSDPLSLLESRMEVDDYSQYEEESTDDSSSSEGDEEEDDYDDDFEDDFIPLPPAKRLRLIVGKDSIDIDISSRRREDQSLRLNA

Histone-lysine N-methyltransferase KMT5B (Homo sapiens), Q4FZB7
Km [1]: 0.0278 µM
Km [2]: 0.0748 µM
